In patent publication US20100197582A1:

Target: human GHR stably expressed in human 293 cells (human) (UniProt P10912)
Assay: cell-based or functional assay

Sequence of UniProt P10912 (P10912 19-638): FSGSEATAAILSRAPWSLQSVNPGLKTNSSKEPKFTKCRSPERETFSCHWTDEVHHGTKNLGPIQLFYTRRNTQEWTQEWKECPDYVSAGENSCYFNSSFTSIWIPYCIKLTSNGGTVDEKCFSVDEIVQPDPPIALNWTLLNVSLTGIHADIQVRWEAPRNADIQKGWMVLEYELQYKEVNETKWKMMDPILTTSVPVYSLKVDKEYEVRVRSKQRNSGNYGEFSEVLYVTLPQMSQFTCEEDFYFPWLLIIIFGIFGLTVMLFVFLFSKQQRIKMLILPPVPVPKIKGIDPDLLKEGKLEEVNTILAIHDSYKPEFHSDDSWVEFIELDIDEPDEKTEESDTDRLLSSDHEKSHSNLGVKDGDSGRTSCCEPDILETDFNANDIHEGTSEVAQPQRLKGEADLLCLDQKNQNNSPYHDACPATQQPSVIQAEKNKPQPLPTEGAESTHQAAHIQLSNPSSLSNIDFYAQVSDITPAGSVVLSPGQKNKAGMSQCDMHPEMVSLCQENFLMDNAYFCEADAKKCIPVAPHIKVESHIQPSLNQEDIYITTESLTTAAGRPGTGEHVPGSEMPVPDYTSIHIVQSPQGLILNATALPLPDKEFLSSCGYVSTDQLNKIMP

- bioactivity in GH-specific luciferase reporter assay (Stat 5 luciferase reporter), relative to GH: 10%
- concentration giving maximal response, Stat 5 luciferase-reporter assay: 50 to 250 nM
Substance: LR-fusion (human GH linked to the A & B domains of the GHR extracellular domain, exGHR1-238, via a (Gly4Ser)4 linker) (from UniProt P01241 27-217; P10912 1-238)
